Reference: patent US20240131158A1 (Takeda / Millennium, published 2024)
Residue numbers refer to the chain shown, from its start. Numbers in names are those of the source.

T1: mouse recombinant TGFbR2-Fc protein (mouse, UniProt Q62312-1 24-184, limits assumed)
T1 construct: also called mouse TGFbR2; not shown: Fc part of the fusion protein
T1 sequence (looked up): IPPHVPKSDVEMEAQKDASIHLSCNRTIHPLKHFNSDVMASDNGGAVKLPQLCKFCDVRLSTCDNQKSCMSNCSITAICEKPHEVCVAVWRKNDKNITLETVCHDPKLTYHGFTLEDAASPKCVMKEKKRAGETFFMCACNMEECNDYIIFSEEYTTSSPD

B1: hTGFbR2 scFv VH-VL G4S dimer (scFv)
chain: QLQVQESGPGLVKPSETLSLTCTVSGGSISNSYFSWGWIRQPPGKGLEWIGSFYYGEKTYYNPSLKSRATISIDTSKSQFSLKLSSVTAADTAVYYCPRGPTMIRGVIDSWGQGTLVTVSSGGGGSGGGGSGGGGSEIVLTQSPATLSLSPGERATLSCRASQSVRSYLAWYQQKPGQAPRLLIYDASNRATGIPARFSGSGSGTDFTLTISSLEPEDFAVYYCQQRSNWPPTFGQGTKVEIKGGGGSQLQVQESGPGLVKPSETLSLTCTVSGGSISNSYFSWGWIRQPPGKGLEWIGSFYYGEKTYYNPSLKSRATISIDTSKSQFSLKLSSVTAADTAVYYCPRGPTMIRGVIDSWGQGTLVTVSSGGGGSGGGGSGGGGSEIVLTQSPATLSLSPGERATLSCRASQSVRSYLAWYQQKPGQAPRLLIYDASNRATGIPARFSGSGSGTDFTLTISSLEPEDFAVYYCQQRSNWPPTFGQGTKVEIK
notes: Built here from its name (scFv - G4S - scFv); Flag-tagged; also called TGFbR2 scFv VH-VL dimer
B2: mTGFbR2 VH1 (VHH)
VHH: EVQLLESGGGLVQPGGSLRLSCAASGFTFTTYGMGWVRQAPGKGLEWVSWIEKTGNKTYYADSVKGRFTISRDNSKNTLYLQMNSLRAEDTAVYYCAKARHIKVRSRDFDYWGQGTLVTVSS
notes: Single domain VH expressed in human CAR-T cells; Flag-tagged
B3: hTGFbR2 VH1 (VHH)
VHH: EVQLLESGGGLVQPGGSLRLSCAASGFTFGTEQMWWVRQAPGKGLEFVSRIDSPGGRTYYADSVKGRFTISRDNSKNTLYLQMNSLRAEDTAVYYCAKRRPTGVSGTFYDYWGQGTLVTVSS
notes: Single domain VH; Secreted into CAR-T cell supernatant; Detected with anti-flag HRP
B4: hTGFbR2 VH3 monomer (VHH)
VHH: B3 VHH with E32D, D62N, R100Q, T102A, T107K, F108Y, Y109V
notes: Flag-tagged
B5: TGFbR2 scFv VH-VL (scFv)
scFv: QLQVQESGPGLVKPSETLSLTCTVSGGSISNSYFSWGWIRQPPGKGLEWIGSFYYGEKTYYNPSLKSRATISIDTSKSQFSLKLSSVTAADTAVYYCPRGPTMIRGVIDSWGQGTLVTVSSGGGGSGGGGSGGGGSEIVLTQSPATLSLSPGERATLSCRASQSVRSYLAWYQQKPGQAPRLLIYDASNRATGIPARFSGSGSGTDFTLTISSLEPEDFAVYYCQQRSNWPPTFGQGTKVEIK
notes: Secreted into CAR-T cell supernatant; Detected with anti-flag HRP; also called hTGFbR2 scFv VH-VL monomer; TGFbR2 scFv VH-VL monomer
B6: TGFbR2 scFv VL-VH (scFv)
scFv: EIVLTQSPATLSLSPGERATLSCRASQSVRSYLAWYQQKPGQAPRLLIYDASNRATGIPARFSGSGSGTDFTLTISSLEPEDFAVYYCQQRSNWPPTFGQGTKVEIKGGGGSGGGGSGGGGSQLQVQESGPGLVKPSETLSLTCTVSGGSISNSYFSWGWIRQPPGKGLEWIGSFYYGEKTYYNPSLKSRATISIDTSKSQFSLKLSSVTAADTAVYYCPRGPTMIRGVIDSWGQGTLVTVSS
notes: Secreted into CAR-T cell supernatant; Detected with anti-flag HRP
B7: hTGFbR2 VH3 G4S dimer (VHH)
chain: EVQLLESGGGLVQPGGSLRLSCAASGFTFGTDQMWWVRQAPGKGLEFVSRIDSPGGRTYYANSVKGRFTISRDNSKNTLYLQMNSLRAEDTAVYYCAKRQPAGVSGKYVDYWGQGTLVTVSSGGGGSEVQLLESGGGLVQPGGSLRLSCAASGFTFGTDQMWWVRQAPGKGLEFVSRIDSPGGRTYYANSVKGRFTISRDNSKNTLYLQMNSLRAEDTAVYYCAKRQPAGVSGKYVDYWGQGTLVTVSS
notes: It is built here from its name (VH3 - G4S - VH3); Flag-tagged; also called hTGFbR2-VH3 dimer
B8: hTGFbR2 VH2 monomer (VHH)
VHH: EVQLLESGGGLVQPGGSLRLSCAASGSTFTEYRMWWVRQAPGKGLEWVSAIEPIGHRTYYANSVRGRFTISRDNSKNTLYLQMNSLRAEDTAVYYCAKQAPGEKWARRWDLDYWGQGTLVTVSS
notes: Flag-tagged (anti-flag HRP detection); also called TGFbR2 hVH2
B9: hTGFbR2 VH2 G4S dimer (VHH)
chain: EVQLLESGGGLVQPGGSLRLSCAASGSTFTEYRMWWVRQAPGKGLEWVSAIEPIGHRTYYANSVRGRFTISRDNSKNTLYLQMNSLRAEDTAVYYCAKQAPGEKWARRWDLDYWGQGTLVTVSSGGGGSEVQLLESGGGLVQPGGSLRLSCAASGSTFTEYRMWWVRQAPGKGLEWVSAIEPIGHRTYYANSVRGRFTISRDNSKNTLYLQMNSLRAEDTAVYYCAKQAPGEKWARRWDLDYWGQGTLVTVSS
notes: Flag-tagged; also called hTGFbR2-VH2 dimer

Columns and labels:
[1] = target: T1, mouse recombinant TGFbR2-Fc protein; assay: ELISA, mouse recombinant TGFbR2-Fc as capture, mouse CAR-T supernatant, anti-flag HRP detection
Description: (§1) Supernatant from TGF-β modulating CAR-T cells were assayed by ELISA to detect anti-TGF-β and anti-TGFβR2 antibodies. Maxisorp 96 well plates were coated with recombinant human TGF-β […] or hTGFβR2-Fc (0.1 mg/ml; RnD System) in 100 μl coating buffer overnight at 4° C. Plates were washed with 1× wash buffer and blocked for 1 hour with reagent diluent at room temperature. CAR-T supernatant, recombinant TGFβR2-flag, or recombinant TGF-3-flag antibody was added and incubated for 2 hours at room temperature.
(§2) After another washing step, HRP-conjugated flag-tag antibody was added and incubated for 30 minutes at room temperature. Plates were washed and TMB substrate was added for 10-20 minutes. The reaction was stopped using Stop reagent and plates were read at 450 nm using a Pherastar Plate reader. ELISA using coated TGF-b detected high levels of TGF-b scFv VH-VL1 and TGF-b scFv VH-VL2 as compared to TGF-b scFv VL-VH using anti-flag tag HRP antibodies for binder detection (FIG. 3A). ELISA using coated TGFbR2-Fc detected high levels of TGFbR2 scFv VH-VL, TGFbR2 scFv VL-VH and hTGFbR2 VH1 from human CAR-T but was unable to detect mTGFbR2 VH1 (FIG. 3B). TGF-β binders and TGFβR2 binders were secreted by TGF-β modulating CAR-T cells and bind to their cognate antigen.
Supernatant was harvested two days after transduction and frozen at −80′C until used for ELISA. ELISA was performed as described in Example 3. Human recombinant TGFbR2-Fc protein was used for capturing binders against human TGFbR2 and mouse recombinant TGFbR2-Fc protein was used for probing binding of TGFbR2 binders to mouse TGFbR2. Binding was detected using anti-flag HRP antibodies and the respective substrate. […] None of the binders from the tested supernatants bound to mouse TGFbR2 confirming specificity for human TGFBR2.

[2] = target: T2, hTGFβR2-Fc (human, UniProt P37173 23-159); assay: ELISA, plate coated with hTGFβR2-Fc, CAR-T supernatant, anti-flag HRP detection
T2 construct: Bought (RnD Systems); also called TGFbR2-Fc; human recombinant TGFbR2-Fc protein; not shown: Fc part of the bought fusion protein
Description: as §1, §2

[3] = target: T2, hTGFβR2-Fc; assay: ELISA, plate coated with hTGFβR2-Fc, human CAR-T supernatant, anti-flag HRP detection
Description: as §1, §2

[4] = target: T2, hTGFβR2-Fc; assay: ELISA (figure legend)
Description: as §1
as §2, with “TGF-β binders and TGFβR2 binders were secreted by TGF-β modulating CAR-T cells and bind to their cognate antigen.” left out
(§3) Supernatant was harvested two days after transduction and frozen at −80′C until used for ELISA. […] Binding was detected using anti-flag HRP antibodies and the respective substrate. […]

[5] = target: T2, hTGFβR2-Fc; assay: ELISA, human recombinant TGFbR2-Fc as capture, mouse CAR-T supernatant, anti-flag HRP detection
Description: as §1
as §2, with “TGF-β binders and TGFβR2 binders were secreted by TGF-β modulating CAR-T cells and bind to their cognate antigen.” left out
as §3

T2 sequence (P37173 23-159 limits assumed): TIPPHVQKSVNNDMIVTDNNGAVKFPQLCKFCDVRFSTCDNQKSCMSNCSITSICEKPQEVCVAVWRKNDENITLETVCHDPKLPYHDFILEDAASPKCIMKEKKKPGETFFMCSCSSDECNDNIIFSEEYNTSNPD

Binder | binding result [1] | other results
B1 | no binding | –
B2 | – | binding result [2]: no binding
B3 | – | binding result [3]: binds
B4 | no binding | binding result [4]: binds
B5 | no binding | binding result [5]: binds
B6 | – | binding result [3]: binds
B7 | no binding | –
B8 | no binding | binding result [4]: binds
B9 | no binding | –
